For assay [1], the target named is Insulin Receptor (UniProt P06213-2 28-944, limits assumed). The assay is described as follows: ELISA, one condition. A general note: ELISA stands for enzyme-linked immunosorbent assay.
In assay [2] the target is T1, IGF1R on MCF7 breast cancer cells (UniProt P08069 31-1367, limits assumed).
T1 construct: whole, on cells; Endogenous receptor on MCF7 cells; also called MCF7 cells expressing IGF1R
Briefly: flow cytometry, binding to MCF7 cells, PE anti-human IgG detection. Here is the method: (§1) This example illustrates in vitro data for anti-IGF1R antibodies cellular binding EC₅₀ measurements. […] In this example, the experimental procedure is as follows: 50,000 MCF7 breast cancer cells were aliquoted into the wells of a 96-well, v-bottom plate in 100 μl FACS Buffer (PBS+2% FBS). Cells were spun down, washed 1× with FACS Buffer, and then resuspended in 25 μl of antibody solution in triplicate. After 0.5 hr incubation, cells were washed 1× with FACS Buffer and resuspended in 50 μl PE-conjugated, goat anti-human IgG (γ-chain specific) secondary antibody (Southern Biotech Cat #2040-09). Cells were further incubated for 0.5 hr and then washed 1× with FACS Buffer. Cells were resuspended in 25 μl FACS Buffer and the median fluorescence intensity in the FL2-H channel was determined using the Intellicyt HTFC flow cytometer.
(§2) While these values range over orders of magnitude, all antibodies show strong, specific binding to MCF7 cells expressing IGF1R. Data was collected on the Intellicyt HTFC flow cytometer, processed using FlowJo software, and analyzed and plotted in Graph Pad Prizm using non-linear regression fit. Data points are shown as the median fluorescence intensity (MFI) of positively labeled cells +/− Std Error.

The target of assay [3] is T1, IGF1R on MCF7 breast cancer cells. Briefly: cell-based or functional assay.
Assay [4] shares this target. Briefly: flow cytometry on MCF7 cells, PE goat anti-human IgG secondary, median FL2-H, non-linear regression fit, the concentration axis is LogM. Here is the method: as §1, §2
(In flow cytometry, cells or beads pass a laser one at a time.)

Assay [5] addresses T2, rhIGF1R (human, UniProt P08069 31-932, limits assumed).
T2 construct: Recombinant protein used in the Octet measurements; also called recombinant human IGF1R
The assay is described as follows: BLI, Forte Bio Octet Red; B9 on anti-hIgG Fc capture sensor. For orientation: In BLI a coated tip is dipped into the sample, and binding shifts an interference pattern.

Sequence of Insulin Receptor (P06213 other isoform, or with tags, fused parts or gaps limits assumed): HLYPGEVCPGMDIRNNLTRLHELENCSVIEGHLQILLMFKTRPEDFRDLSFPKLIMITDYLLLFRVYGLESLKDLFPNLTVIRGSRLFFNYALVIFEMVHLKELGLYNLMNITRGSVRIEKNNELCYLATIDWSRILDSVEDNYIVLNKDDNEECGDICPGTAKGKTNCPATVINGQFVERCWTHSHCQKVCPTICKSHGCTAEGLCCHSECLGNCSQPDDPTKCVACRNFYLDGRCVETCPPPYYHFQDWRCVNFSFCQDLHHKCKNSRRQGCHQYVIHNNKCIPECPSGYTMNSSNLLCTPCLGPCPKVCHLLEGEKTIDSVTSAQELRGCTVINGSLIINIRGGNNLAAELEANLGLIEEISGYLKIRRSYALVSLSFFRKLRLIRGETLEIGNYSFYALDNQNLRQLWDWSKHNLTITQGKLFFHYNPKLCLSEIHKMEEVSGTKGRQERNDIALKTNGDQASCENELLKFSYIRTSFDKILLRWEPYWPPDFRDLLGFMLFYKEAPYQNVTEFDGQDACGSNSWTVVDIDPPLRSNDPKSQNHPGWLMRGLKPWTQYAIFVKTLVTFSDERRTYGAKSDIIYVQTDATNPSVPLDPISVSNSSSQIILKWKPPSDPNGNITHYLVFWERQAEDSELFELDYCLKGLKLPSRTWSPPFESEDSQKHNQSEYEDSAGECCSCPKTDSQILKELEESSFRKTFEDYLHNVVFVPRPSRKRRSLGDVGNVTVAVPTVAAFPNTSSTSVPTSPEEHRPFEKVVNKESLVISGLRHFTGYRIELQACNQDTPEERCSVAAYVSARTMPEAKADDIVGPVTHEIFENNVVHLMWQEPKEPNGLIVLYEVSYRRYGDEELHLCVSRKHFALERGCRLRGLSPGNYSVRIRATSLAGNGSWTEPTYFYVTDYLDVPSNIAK
T1 sequence (P08069 31-1367 limits assumed): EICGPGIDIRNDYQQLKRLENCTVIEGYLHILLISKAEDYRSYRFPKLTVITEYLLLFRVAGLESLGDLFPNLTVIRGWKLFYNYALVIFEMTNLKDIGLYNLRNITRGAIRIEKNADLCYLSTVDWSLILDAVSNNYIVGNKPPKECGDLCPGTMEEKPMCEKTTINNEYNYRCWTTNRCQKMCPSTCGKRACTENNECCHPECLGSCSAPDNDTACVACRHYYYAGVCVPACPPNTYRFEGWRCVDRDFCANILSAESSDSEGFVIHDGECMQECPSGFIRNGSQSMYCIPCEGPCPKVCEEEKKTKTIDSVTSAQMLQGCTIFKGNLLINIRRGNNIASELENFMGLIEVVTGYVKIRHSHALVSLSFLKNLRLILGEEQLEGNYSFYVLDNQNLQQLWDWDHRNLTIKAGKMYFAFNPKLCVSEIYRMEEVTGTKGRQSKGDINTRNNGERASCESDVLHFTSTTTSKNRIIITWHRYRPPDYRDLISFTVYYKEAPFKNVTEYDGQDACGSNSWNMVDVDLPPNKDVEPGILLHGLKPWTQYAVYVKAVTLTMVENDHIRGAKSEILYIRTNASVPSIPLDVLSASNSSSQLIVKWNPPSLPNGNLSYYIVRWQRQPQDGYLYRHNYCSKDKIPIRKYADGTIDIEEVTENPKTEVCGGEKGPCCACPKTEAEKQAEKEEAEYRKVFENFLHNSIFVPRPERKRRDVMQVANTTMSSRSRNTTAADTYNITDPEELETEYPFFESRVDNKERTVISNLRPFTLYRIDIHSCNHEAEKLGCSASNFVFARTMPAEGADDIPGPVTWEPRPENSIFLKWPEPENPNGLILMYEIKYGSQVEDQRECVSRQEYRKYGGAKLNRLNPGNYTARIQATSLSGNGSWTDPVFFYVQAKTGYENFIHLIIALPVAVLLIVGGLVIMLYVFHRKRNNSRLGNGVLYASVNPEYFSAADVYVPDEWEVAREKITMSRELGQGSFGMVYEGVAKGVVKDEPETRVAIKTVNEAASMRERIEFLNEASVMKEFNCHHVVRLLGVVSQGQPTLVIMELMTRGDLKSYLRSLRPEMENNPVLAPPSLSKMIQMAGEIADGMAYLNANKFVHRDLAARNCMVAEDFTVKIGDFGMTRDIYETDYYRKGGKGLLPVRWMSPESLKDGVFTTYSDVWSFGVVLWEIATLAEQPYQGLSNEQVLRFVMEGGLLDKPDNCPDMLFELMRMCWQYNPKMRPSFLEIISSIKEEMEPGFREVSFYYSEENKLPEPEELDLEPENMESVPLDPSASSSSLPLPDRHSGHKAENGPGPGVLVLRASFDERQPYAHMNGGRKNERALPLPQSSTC
T2 sequence (P08069 31-932 limits assumed): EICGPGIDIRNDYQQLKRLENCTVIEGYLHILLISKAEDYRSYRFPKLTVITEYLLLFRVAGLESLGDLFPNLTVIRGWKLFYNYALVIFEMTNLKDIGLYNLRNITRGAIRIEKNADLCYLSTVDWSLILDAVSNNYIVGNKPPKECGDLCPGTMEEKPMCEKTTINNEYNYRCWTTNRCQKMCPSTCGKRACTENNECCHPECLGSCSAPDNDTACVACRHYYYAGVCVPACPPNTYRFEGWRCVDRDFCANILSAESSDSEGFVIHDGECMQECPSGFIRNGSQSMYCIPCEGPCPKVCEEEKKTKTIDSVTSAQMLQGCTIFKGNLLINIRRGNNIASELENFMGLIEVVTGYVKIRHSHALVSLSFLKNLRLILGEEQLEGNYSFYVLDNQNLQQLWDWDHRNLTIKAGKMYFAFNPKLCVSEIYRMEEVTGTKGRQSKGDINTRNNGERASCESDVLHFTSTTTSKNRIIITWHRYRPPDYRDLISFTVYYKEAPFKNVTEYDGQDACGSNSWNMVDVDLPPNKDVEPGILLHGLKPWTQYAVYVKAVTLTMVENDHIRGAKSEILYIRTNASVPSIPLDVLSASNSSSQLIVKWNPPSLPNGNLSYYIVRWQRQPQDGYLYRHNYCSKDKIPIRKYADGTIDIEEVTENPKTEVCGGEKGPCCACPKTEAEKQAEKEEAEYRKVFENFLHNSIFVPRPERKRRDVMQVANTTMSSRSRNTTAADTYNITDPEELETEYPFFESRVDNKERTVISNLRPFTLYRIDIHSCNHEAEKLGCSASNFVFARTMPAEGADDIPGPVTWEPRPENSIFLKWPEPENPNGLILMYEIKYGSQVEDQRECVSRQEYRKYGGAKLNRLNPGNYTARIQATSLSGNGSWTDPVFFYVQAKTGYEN

B1: anti-IGF1R antibody B9 (antibody, V domains shown)
VH: EVQLLESGGGLVQPGGSLRLSCAASGFTFSSYEMNWVRQAPGKGLEWVSYISTGDSTRSYADSVRGRFTISRDNAKNSLYLQMNSLRAEDTAVYYCARESGTWYGGWYFDLWGRGTLVTVSS
VL: QSVVTQPPSVSAAPGQKVTISCAGSTSNIGNNFVSWYQQLPGTAPKLLIYDNNKRPSEIPDRFSGSKSGTSATLGITGLQTGDEADYYCVTWDSSLSVVLFGGGTKVTVL
notes: Fully human antibody of an IgG class (captured on an anti-hIgG Fc sensor, detected with anti-human IgG); also called clone B9
As usually defined, the EC50 is the concentration at which the effect is half-maximal. The Kd is the free concentration of one partner at which half of the binding sites on the other are occupied at equilibrium, for simple one-to-one binding. In the case of B1, the binding result in assay [1] is “no binding (tested: not given)”. Also, the EC50 in assay [2] was 0.0037 nM; in assay [4] it was 0.0374 nM. For the same molecule, the “IC50 of inhibition of IGF1-stimulated IGF1R auto-phosphorylation in MCF7 cells” value in assay [3] is 0.094 nM. The same molecule yielded a Kd in assay [5] of 1.25 nM.

B2: anti-IGF1R antibody A6 (antibody, V domains shown)
VH: QVQLVQSGAEVMKPGASVKVSCKASGYTFTSYGISWVRQAPGQGLEWMGWISAYNGNTNYAQMLQGRVTMTTDTSTSTAYMELRSLRSDDTAVYYCARRGLSSYYYGMDVWGQGTTVTVSS
VL: QPVLTQPPSVSAAPGQKVTISCSGGTSNVANNYVSWYQQLPGTAPKLLIYGNSNRPSGVPDRFSGSKSGTSASLAITGLQAEDEADYYCQSYDTSLSGYVFGSGTKVTVL
notes: also called clone A6
Molecule B2 displayed an EC50 in assay [4] of 0.705 nM.

B3: anti-IGF1R antibody B10 (antibody, V domains shown)
VH: QVQLVQSGAEVKKPGASVKVSCKGSGYNFPTQAIHWVRQAPGQRLEWMGWTNTANGNAKYSQKFQGRVTITRDTYASTDYMELSSLTSEDTAIYYCTRDRFTGSGTYGMDVWGQGTTVTVSS
VL: SYELMQPSSVSVSPGQTARITCSGDLLTRRYARWFQQKPGQAPLLIIYRDTVRPSGIPERFSASSSGATITLTISGAQLEDEADYYCYSATDNNVVFGGGTKLTVL
notes: Fully human antibody of an IgG class; also called clone B10
As to B3, the binding result in assay [1] was “no binding (tested: not given)”. Moreover, the EC50 in assay [4] was determined as 5.83 nM.

B4: anti-IGF1R antibody C8 (antibody, V domains shown)
VH: QVQLVQSGAEVKKPGSSVKVSCKASGGSFNSFSISWVRQAPGQGLEWMGGITPMFGIGDNAQKFQDRVAITADESMSTFYMELSNLRFEDTAMYFCAREVGGLGFDVWGQGTTVTVSS
VL: VIWMTQSPSSLSASVGDRVTFTCQASQHISKYLNWYQQKPGKAPKLLIYDASNLETGVPSRFSGSGSATDFTLTISSLQPEDFATYYCQQSYLTSYTFGQGTKVDIK
notes: Fully human antibody of an IgG class; also called clone C8
As for B4, the binding result in assay [1] is “no binding (tested: not given)”. In addition, the EC50 in assay [4] was 16.1 nM.

For the origin of these results see patent US20130344069A1 (SORRENTO THERAPEUTICS, published 2013).
